The nature of this series: soluble on expression in E. coli; label from the status in PepcDB or PDB records.
As for “MLTLLNRWRSQPGGASNAAAFIRVLESPKSAVTDKVLVLKAFNDWDVLVNTWFEVADALPAVEQLLDNNTFPEHSSAALLVSKVYFCLEQYERALEFALRGDFNVVPATRTGLGNDAEYVNKIIETAIDTYKTLSKQGSGIPQKLRDLIDRIVARNLDKREIWFVISLGFETTNLAMIDRAISAMPADLTIKNQTTLVETLNRVVNGAFDRSFRFQVIDTVIKTYLKCPSPDMSKICECYVLTDNAEAAADTITSLIAKSLSTRAYQIAFDLYETASQGFLDRVLKRFQQQDARDEKSMEKIHSILKGHETVKAYLDFFVRHNHTDSVLMEEIKENIRTASAHNALLISNGLMQYGTTCDDFLRNNLNWVSKATNWNKFNAVASLGLIHHGQESSAMKVLEPYLPKESVEGFGFKEGGAMLAYGLIHAKHGDATAMSTLAQWLKTAENEPVRHGACLGFGVAGLGSSSVSNYEKVREVLQRDEAVSGESAGIAMGLIMAGHLNQEVFNELKQYTVDTQHDKTQRGIRTGLACAAFGLQGDAEPYIKEAIGAKSNPMLRSTGICMLSMAYAGTGSPDVVRRLLEKVATDPNLDVKRYATIGIGFVLSKDPSTCLSYVAMLTEHFNGHVRYGAAMALGIACAGTGNMEAIALIEPMISDKEGFVRKGALLSLALIMCQQTDYTCPKVNGFRKQLLKKIGEKNEDSLVKFGAIIAQGLLDIGGQNAAVTMQNSDKQPDMGSMVGMMCFLHGWFWHSMHFFIALAAKPSCLVMMNENLKIPVLDYICHANSQKFAYPPRAESKKDKDVKKIETVVLSITGKKNASKKLIAEEKKRREAAASASSAAAAPSSSSTSGTAPAAEDEKMEVDQPGKSKKEKAPEKDTKPLHRLQNPARVIPAQRQLISISDARAYSPMKPLYKGGIIVADRVDKEREEKLVSEVVTQVNTPASSGNTENKPHSTFEININDF”, the “soluble on expression in E. coli” value is “not soluble”.
Turning to “MLTPRDENNEGDAMPMLKKPRYSSLSGQSTNITYQEHTISREERAAAVGRHEGFRGCTIWFTGLSGAGKTTISFALERTLNKLGIPCYGLDGDNIRHGLCKNLGFSKEDRQENIRRVAEVAKLFADSGMICLAAFISPFQEDRLDARKIHESENVKFIEVHVSTTLEVCEQRDPKQLYKKARAGQILGFTGIDSAYEPPENAEIILDAGKDGVQQCVQKVLDHLESKGLLPEQIPDVPAVRELFVSDDLTVAELLKESQNLPTVELTKVDLQWLQVLAEGWATPLSGFMRERQYLQSMHFGQLLDLKHKVAFVGEKSDDKEDSWPMMDDINQSIPIVLPISDDVKKGLEGVTRIALKYNGQVYAILSDPEIFEHRKDERVCRQFGTNDPRHPAVAQVLESGNWLLGGDVAVVQKIQFNDGLDKYRKTPNELRAIFAEKNADAVFAFQLRNPIHNGHALLMRDTREKLLAEHKNPILLLHPLGGWTKDDDVPLDIRIKQHEAVIAERVLDPEWTVLSIFPSPMMYAGPTEVQWHARSRIAAGIQHYIVGRDPAGIQKPGSPDALYETTHGAKVLSMAPGLSALHILPFRVAAYDKTAKKMSFFDTSRKEDFENISGTKMRGLARNGDTPPEGFMAPTAWEVLAGYYKSLQNSN”, the “soluble on expression in E. coli” value is given as “not soluble”.
In the case of “MLTQEHINIIKSTIPLLESAGPALTQHFYQRMFSHNPELKHIFNMTHQKTGRQSVALFEAIAAYAKHIDNLAALTSAVERIAHKHTSFNIQPEHYQIVGHHLLETLRELAPDAFTQPVEEAWTAAYFFLAQVFIDREGALYLERKQALGGWRDGRTFVVREKQVESAYVTSFVLVPADGGAVLDYQPGQYIGIEVTPEGSDYREIRQYSLSHASNGREYRISVKREGVGSDNPGLVSHYLHNNVKVGDSVKLYAPAGDFFYVERERPVVLISAGVGATPMQAILHTLAKQNKSGVTYLYACNSAKEHTFAQETAQLIAQQGWMQQVWYRDESADDVLQGEMQLAELILPIEDGDFYLCGPIGFMQYVVKQLLALGVDKARIHYEVFGPHAQLAA” it was “not soluble”; in that of “MLTVIAEIRTRPGQHHRQAVLDQFAKIVPTVLKEEGCHGYAPMVDCAAGVSFQSMAPDSIVMIEQWESIAHLEAHLQTPHMKAYSEAVKGDVLEMNIRILQPGI”, “soluble”.
Consider “MLTWSTSATSSKPTLRGKIPNSKAAEEFLDSWDNAVFDGKSTGDPELDREASLWRDKFPHLRITGSRFESQKVTHPIPVDSLSFQKSIIQHSKSANAIREKLPKIDNFKKK”, for which the “soluble on expression in E. coli” value was “not soluble”.
As to “MLVAGAGALCLTLSGCAGAGSLGASDQTITIAMVSNSQMQDAQKLASQFEEENPDIDLKFVTLSENQARAKITASTATGGGEFDVVMISNYETPQWAKYGWLKNLSEYAEATEGYDEADFIPTLRESLSYEGNMYSVPFYGESSFLMYRKDLFEQAGITLSEKPTWTEVATAAKQLDSEDMAGICLRGKPGWGELLAPLDTVINTFGGRWFDEDWNAQLTSPEVERAVQFYVDLVREYGEPGAATSGFGECATQLAQGQVAMWYDSTSAVSTLEDPASSAVVGKIGYAPAPIEVKDNSGWLYSWSLGIPESSENPDAAWKFISWMTDKQYIRTVGEDLGWERVPPGSRLSTYEIPEYKEASAAYGPLTLEAIEDATPNAPTVQPVPYTGVQFLAIPEFQDLGTRVSQQISAAIAGQQTVPEALAQAQQYAEVVGATYREDR”, the “soluble on expression in E. coli” value is “not soluble”.
In the case of “MLVEDSGHHLPESADIENALDLLLKAQLERAFGPELAEHFWAARQPRTLDERLAFIRKCWIGVFKDSPLSTFGLERLEQLERLCRSKRRGRELSAAEHHQFAEELARLWEQVQRLLPRAAPETSYASSASAGGVHSGDAHTPATLSDAESAHAAPEAMRIEAPATSARSASGCMARVSSDVAAAATNVSLVVLDGENIAWAHGQNAVFSPKGIAIAVDFFRKRGYRCVVFLPDYRRKRADLPTVSASDALVFVPAGEYDDTFALGYAVGHDAILVTNDLLQDHLDQFYPDEGEAREALRKWLGSHRCSFTFVGDEFLPNPHFFLP” it was “not soluble”; in that of “MLVKGNEILLKAHKEGYGVGAFNFVNFEMLNAIFEAGNEENSPLFIQASEGAIKYMGIDMAVGMVKIMCERYPHIPVALHLDHGTTFESCEKAVKAGFTSVMIDASHHAFEENLELTSKVVKMAHNAGVSVEAELGRLMGIEDNISVDEKDAVLVNPKEAEQFVKESQVDYLAPAIGTSHGAFKFKGEPKLDFERLQEVKRLTNIPLVLHGASAIPDNVRKSYLDAGGDLKGSKGVPFEFLQESVKGGINKVNTDTDLRIAFIAEVRKVANEDKSQFDLRKFFSPAQLALKNVVKERMKLLGSANKI”, “soluble”.
Regarding “MLVLIRVFNTLGRRKEVFNPYSPPLVGMYVCGPTVYDYTHIGHARTFTVFDAIKRYLRLRGYDVFHVQNITDIDDKIINRAREEGRDWREIVREYSRDYLEGLGSLGIQIDHHPRVTDHISDIIRFIEGLIEKGYAYVAESGSVYFEVDKYPGYGMLSGHLSKEAWRQEEDVLHEKKSPYDFALWKAAKPGEPSWESPWGRGRPGWHIECSVMSSRYLGSRIDIHGGGVDLVFPHHENERAQSESYFGHRWVRYWLHASYLTIKGEKMSKSLGNIIPLREALREWGPGPLRLWLLSSHYRSNLDYSEEALGQYRRLYERLRQAADSIGRRLERAEPKGRLGEGELETVERLKGVVRRWHEAMSDDFNMGKAMSSLWEFTTIYFREVEQTESYTLLWLSWRILTGFNSVYAFAPDIVEARRPERSLEDSLVQALVDVRSELRRRKMYDLADEIRSRLAQLGFVLHDKGEKTEWRRR”, the “soluble on expression in E. coli” value is “soluble”.
In the case of “MLVLYRASIRFKLRKNKNSFDSSNYFYGGNNICIINTKWGKHSGIGGYAEIIDTLVGNFTNISSWAKIGIRDHIHTNFLICDFVYKDNDHIMPPGISSFEDYWVKIGNDVWVGTNVTILRGVEVGDGAVIAAGSVVTKSIPPYAIVGGNPAKFIKWRFPFEVREKLLEIKWWDWDDDLIKEKKDYLQNLVGFDMDKYKIEYRKRKEDLFYLEHHHHHH” it was “soluble”; in that of “MLVNFIKNFIPHRFYSSKTEIPVVRLHGAIIDSSSSIARTLSLGRCANLLDKAFAYKKAPAVAVIINSPGGSPVQSRLIFKRIRDLAEEKKKQVLMFIEDIAASGGYMIACAGDEIFADPSSIVGSIGVVSASFGFPELLKKIGIERRVYTAGKNKVTLDPFQPEKKTDIEHLKSLQLEVHKTFIDLVKERRAEKLSNDPNIFTGMFWSGKKSVELGLIDGLNDVRSVIKERFGDDTKLRLIIPPKSLFGPKTPSGVTAHAVHTAIDSALMVAQERALWQYYGLLEHHHHHH”, “soluble”.
In the case of “MLVPLYDVMCRALGINGKTAGSAYSGEQQVDVGREVKVQFMTSNNIDMVWEFRSAGDQLVVHPGAVNQMVFYARNPSDKPMTAQAIPSIAPAEAAAYFHKTECFCFTQQVLQPGESIEMPVRFIVDRDLPKDVRHVTLAYTLFDI” it was “soluble”; in that of “MLVRRLFQPSTLHWAWRTTALNHPLGRHQGGLRWTHSGGRSYRAVIFDTGGVLVPSPGTVAVGWEVQNHVPSGTIVKAFIRGGDSGPWIRFIKGEITTEHFLEEFGRLCSEIAKTSVPVSSYFSLLTSEQVTKQFPVMTQAISQIRAKGLQTAVLTNNFHLSSGESFLPLDRKQFDVVVESCLEGICKPDPRIFQLCLQRLSLQPSEAIFLDDLGSNLKVAASLGIHTIKVDRPETAVKELEALLGFPLHLGVPNTRPVRKTMAIPQDALEKYLKGLLGTHSTGPMELLQFDHGQSNPTYYIRLADRQLVLRKKPSGTLLPSAHAIEREFRIMKALANAGVPVPTVLDLCEDSSIIGTPFYLMEYCPGIIYKDPSLPGLEPSRREAIYTAMNQVLCRIHSVDLQATSLDSFGKQGDYIPRQVQTWTKQYRAAETSSIPAMERLIQWLPLHLPRQQRTTLVHGDFRLDNLIFHPEKAEVLAVLDWELSTLGDPFADVAYSCLAYYLPSSFPILRGFRDQDVTKLGIPTVEEYFRMYCLNMGIPPIDNWNFYMAFSFFRVAAILQGVYKRSLTGQASSATAQQSGKLTESMAELAWDFATKEGFRVFKEMPATKTLSRSYHAWAGPRSPRTPKGVRGHSTVAAASPSHEAKGGLVISPEGLSPAVRKLYEQLVQFIEQKVYPLEPELQRHQASADRWSPSPLIEDLKEKAKAEGLWNLFLPLETDPEKKYGAGLTNVEYAHLCEVMGMSLYASEIFNCSAPDTGNMEILVRYGTEEQKARWLVPLLEGRIRSCFAMTEPQVASSDASNIEASIKEEDGCYVINGHKWWTSGILDPRCKLCVFMGKTDPQAPRHQQQSMLLVPMDSPGITVIRPLSVFGLEDPPGGHGEVRFKDVRVPKENILLGPGRGFEIAQGRLGPGRIHHCMRLIGYSERALALMKTRVMSRTAFGKPLVEQGTILADIARSRVEIEQARLLVLKAAHLMDVAGNKTAALDIAMIKMVVPSMAYHVIDRAIQAFGAAGLSSDYPLAQFFGWARALRFADGPDEVHQLTVAKMELKNQSRMQEPAVPRV”, “soluble”; in that of “MLWGRREFVMREEDTVCVGSDGLQYCKVCGEAKEAFFPEGGFMGMKKHSRQCACDRKAYEEEQKYFKDKEHRELVSRNTSICFDESRMEEWTFENADMSDAVMHKAKSYVDNWEEMKRNHIGCLFWGPVGTGKSFIAGCIANELLKQEVTVKMTNFNTIIDDIFPLADKTEYINALASYQLLIIDDLGVERNSEYALGIIFSVIDRRIRSGRPLIITTNLPLNEIKSETMLDKRRIYDRILEMCTPMYVGGASKREAIASMKMEKAKTLLNTNKGEE”, “not soluble”.
The value for “MLWRKRLFAHLYPGLSARHEALVAERKRALFREALRRARPERVLEIGPGPGTNLAHLPEGVAYLALEPNPFFHPRLREEARKRGLALTLLPGRAEAIPLPGGSVDLVVATLVLCSVADPEKAIEEVHRVLRPGGAYLFLEHVAAPKRTPLRFLQEVATPFFAFFGDGCHPNRETLALIQARFPRVEAEAFPLPLPVVAPHVAGLAFKEGGSGGSLQGPWA” was “soluble”; that for “MLYINSFLDRMGEIIRGEKSVEEADKLLDQKNIFEMFRSDCEEILNLYKSGKAEKEEVQRNFYLLKTYVVSQLSIHFERLKEFAESKGFKIEKKLDPEVINEIALYIDRVEKEV” was “soluble”.

These data come from the DeepSol protein solubility set.
